B1: unnamed (parent)
chain 1: MSAAILLAPGDVIKRSSEELKQRQIQINLVDWMESEGGKEDKTEPKEESKAEGSKDGEGTQSESGQKEEGGKETKDADVDRRIHTAVGSGSGTKGSGERANENANRGDGKVGGGGGDADAGVGATGTNGGRWVVLTEEIARAIESKYGTKIDVYRDEVPAQIIEVERSLQKELGISREGVAEQTERLRDLRRKEKNGTHAKAVERGGRKQRKKAHGDAQREGVEEEKTSEEPARIGITIEGVMSQKKLLSMIGGVERKMAPIGARESAVMLVSNSIKDVVRATAYFTAPTGDPHWKEVAREASKKKNILAYTSTGGDVKTEFLHLIDHL
chain 2: MAAQNEQRPERIKTTPYLEGDVLSSDSGPLLSVFALQEIMQKVRQVQADYMTATREVDFTVPDVQQILDDIKALAAAQVYKIVKVPSTSFRHIVTQSRDRVLRVDTYYEEMSQVGDVITEDEPEKFYSTIIKKVRFIRGKGSFILHDIPARDHRGMEVAEPEVLGVEFKNVLPVLTAEHRAMIQNALDGSIIENGNVATRDVDVFIGACSEPFYRIYNRFQGYIEAVQLQELRNSIGWLERLGQRKRITYSQEVLTDFRRQDMIWVLALQLPVNPQVVWDVPRSSIANLIMNIATCLPTGEYIAPNPRISSITLTQRITTTGPFAILTGSTPTAQQLNDVRKIYLALMFPGQIILDLKIDPGERMDPAVRMVAGVVGHLLFTAGGRFTNLTQNMARQLDIALNDYLLYMYNTRVQVNYGPTGEPLDFQIGRNQYDCNVFRADFATGTGYNGWATIDVEYRDPAPYVHAQRYIRYCGIDSRELINPTTYGIGMTYHCYNEMLRMLVAAGKDSEAAYFRSMLPFHMVRFARINQIINEDLHSVFSLPDDMFNALLPDLIAGAHQNADPVVLDVSWISLWFAFNRSFEPTHRNEMLEIAPLIESVYASELSVMKVDMRHLSLMQRRFPDVLIQARPSHFWKAVLNDSPEAVKAVMNLSHSHNFINIRDMMRWVLLPSLQPSLKLVLEEEAWAAANDFEDLMLTDQVYMHRDMLPEPRLDDIERFRQEGFYYTNMLEAPPEIDRVVQYTYEIARLQANMGQFRAALRRIMDDDDWIGFGGVLRTVRVKFFDARPPDDILQGLPFSYDTNEKGGLSYATIKYATETTIFYLIYNVEFSNTPDSLVLINPTYTMTKVFINKRIVERVRVGQILAVLNRRFVAYKGKMRIMDITQSLKMGTKLAAPTV
B2: unnamed (parent)
chain 1: B1 chain 2
chain 2: B1 chain 1

Variants of: B1
Test: coimmunoprecipitation (IP anti-HA MAb), immunoblot gray-value analysis
Settings: with partner chain of the complex shown, five experiments, means ± SDs, parent: 100, read off a plot

Variant	percent of parent
chain 1 F286A	18 % of WT
chain 1 R281A F286A	1 % of WT
chain 1 R281A	100 % of WT
chain 1 A282G A284G	42 % of WT
chain 1 Y285A	7 % of WT
chain 1 Y285A F286A	2 % of WT

Variants of: B2
Test: coimmunoprecipitation (IP anti-Flag MAb), immunoblot gray-value analysis
Settings: with partner chain of the complex shown, five experiments, means ± SDs, parent: 100, read off a plot

Variant	percent of parent
chain 2 R281A	130 % of WT
chain 2 R281A Y285A F286A	2 % of WT
chain 2 R281A F286A	19 % of WT
chain 2 Y285A F286A	2 % of WT
chain 2 F286A	57 % of WT
chain 2 Y285A	1 % of WT
chain 2 R281A Y285A	4 % of WT
chain 2 A282G A284G	45 % of WT

From publication PMC5774872
